Here are results for eight molecules from US20220380473A1, “ANTI-GAL3 ANTIBODIES AND USES THEREOF” (TrueBinding, Inc., priority 2019, published 2022).

“Also recorded” adds a separate entry of the source.

The test system of one assay is hGal3 peptide. Briefly: Gal3 peptide library ELISA (Example 25). In kind it is binding, human. As to conditions: for Epitope Mapping: hGal3 peptide No. bound; for Gal3 peptide bound: peptide array ELISA. On the procedure:
To identify the epitopes to which Gal3 antibodies with and without Gal3-TIM3 blocking activity bound, a library of 20 amino acid peptides representing portions of Gal3, summarized in Table 24.1, was produced and the ability to bind Gal3 antibodies was evaluated by ELISA.
At least 2 μg/ml of hGal3 peptide in 50 μl of PBS or 0.1 μg/ml of full-length human Gal3 protein (GenScript) and human Galectin-3 protein (Acro Biosystems, GA3-H5129) were diluted in PBS (Corning, 21-030-CM) to concentrations of at least 2 μg/ml or 0.1 μg/ml, respectively, and added to the wells of a 96-well ELISA plate (Thermo Fisher, 44-2404-21). After incubating the plate at 4° C. overnight, the plate was washed three times with PBST (PBS with 0.05% Tween 20 [VWR, 0777]). The plate was then blocked for an hour with 2% BSA (EMD Millipore, 126609) in PBST at room temperature with gentle rocking. Thereafter, the 2% BSA in PBST was discarded and human Galectin-3 hybridoma supernatants or antibodies were diluted in 2% BSA in PBST to concentrations of at least 0.1 μg/ml and added to the wells. The plate was incubated for an hour at room temperature with gentle rocking and then washed three times with PBST. Afterwards, Goat Anti-Mouse IgG-HRP (Jackson ImmunoResearch, 115-036-1461) or Goat Anti-Rat IgG HRP (abcam, ab205720) diluted in 2% BSA in PBST (1:4000) were added to the wells. The plate was incubated for 30 minutes to 1 hour at room temperature with gentle rocking and then washed three times with PB ST. TMB substrate (Thermo Scientific, 34029) was then added to each well. The reaction was stopped with 1M HCl (JT Baker, 5620-02) and read using a plate reader (Molecular Devices) at absorbance of 450 nm.
A general note: In an ELISA, binding on a coated surface is turned into a signal by an enzyme label.

A further assay addresses human Gal3-His (Homo sapiens, UniProt P17931). Briefly: Antibody binning by biolayer interferometry (Gator). In kind it is binding. As to conditions: antibody competition. On the procedure: To determine whether Gal3-binding antibodies with Gal3-TIM3 blocking activity bind to the same or overlapping regions of the Gal3 molecule, antibody binning assays were performed to assess the ability of antibodies to simultaneously bind Gal3. Amine-reactive probes were loaded onto a Gator biosensor (Probe Life, Palo Alto, Calif.), equilibrated in dH20 for 60 seconds, dipped into 100 μl EDC 0.2M/NHS 0.05M activation buffer for 30 seconds, then dipped into a solution of […] human Gal3-His in 10 mM NaOAc buffer, pH 5 until binding was saturated, and quenched in 1 M ethanolamine pH 8.5 for 300 seconds. Following Gal3-His loading, tips were dipped in 20 μg/mL saturating antibody, then successively dipped into 5 μg/mL competing antibody.
In general terms: In BLI a coated tip is dipped into the sample, and binding shifts an interference pattern.

Assay [1] addresses T1, association of GAL3 and TIM3 (Homo sapiens, UniProt P17931).
T1 construct: full-length human Galectin-3 protein (Acro Biosystems, GA3-H5129); linker-spaced 6-histidine tag; purchased Acro Biosystems GA3-H5129 (Gal3); TM3-H5229 (TIM-3)
Kind of assay: GAL3-TIM3 blocking ELISA (Examples 24, 27). In kind it is binding. To be noted: 3 ug/mL antibody. On the procedure:
Positively scoring wells were evaluated for the ability to block association of GAL3 and TIM3. To identify GAL3-targeted antibodies with the ability to block the interaction of GAL3 and TIM3, purified GAL3 and TIM3 proteins were incubated in the presence of GAL3-immunization hybridoma supernatants described above, or without antibody, and protein interaction was evaluated by ELISA. Human Galectin-3 protein (Acro Biosystems, GA3-H5129) was diluted in PBS (Corning, 21-030-CM) to a concentration of 3 μg/ml and added to the wells of a 96-well ELISA plate (Thermo Fisher, 44-2404-21). After incubating the plate at 4° C. overnight, the plate was washed three times with PBST (PBS with 0.05% Tween 20 [VWR, 0777]). The plate was then blocked for an hour with 2% BSA (EMD Millipore, 126609) in PBST at room temperature with gentle rocking. Thereafter, the 2% BSA in PBST was discarded and antibody or inhibitor (3-fold dilutions beginning at 20 μg/ml, 60 μg/ml, or 180 μM) in 2% BSA in PBST was added to the wells. Afterwards, 2 μg/ml of human TIM3 (Aero Biosystems, TM3-H5229) in 2% BSA in PBST was added to the antibody or inhibitor in the wells in a 1:1 ratio. The plate was incubated for an hour at room temperature with gentle rocking. Thereafter, the plate was washed three times with PBST, and 0.3 μg/ml of human TIM3 Biotinylated Antibody (R&D Systems, BAF2365) in 2% BSA in PBST was added to the wells. The plate was incubated for an hour with gentle rocking and then washed three times with PBST. Avidin-HRP (1:2000) was then added to the wells. The plate was incubated at room temperature for an hour with gentle rocking and then washed three times with PBST. TMB substrate (Thermo Scientific, 34029) was then added to each well. The reaction was stopped with 1M HCl (JT Baker, 5620-02) and read using a plate reader (Molecular Devices) at absorbance of 450 nm.

The next assay has as its target Galectin-3 (Homo sapiens, UniProt P17931). Kind of assay: SPR (BiacoreT200) binding affinity. As to conditions: 25° C., read-out: hGal-3 KD. On the procedure: GAL3-binding antibodies were evaluated for their binding affinity by SPR. Kinetics experiments were performed on BiacoreT200 at 25° C. in high performance mode. Ligand proteins, purified antibodies were captured onto a CM5 chip coupled with anti-human Fc or anti-mouse Fc antibody, three antibodies at a time onto flow cell #2, 3, and 4, respectively, while flow cell #1 was used as reference. The analyte Galectin-3 in HBS-EP buffer was injected over all four flow cells at concentrations of 100, 50, 25, 12.5, 6.25, 3.125 and 0 nM at a flow rate of 30 μL/min. The complex was allowed to associate and dissociate for 240 and 300 seconds, respectively. The surfaces were regenerated with a 30 second injection of 10 mM Glycine pH 1.7 (flow rate 30 μL/min). The data were fit to a simple 1:1 interaction model using the global data analysis option available within BiacoreT200 Evaluation software V2.0. The affinity of Gal3 monoclonal antibodies was confirmed to be […] 30 nM for all antibodies studied (Table 24.1). Antibodies with affinity less than 2E-7 were selected for further characterization.
(Surface plasmon resonance follows binding to a sensor surface in real time, without labels.)

T1 sequence (P17931 2-250 limits assumed): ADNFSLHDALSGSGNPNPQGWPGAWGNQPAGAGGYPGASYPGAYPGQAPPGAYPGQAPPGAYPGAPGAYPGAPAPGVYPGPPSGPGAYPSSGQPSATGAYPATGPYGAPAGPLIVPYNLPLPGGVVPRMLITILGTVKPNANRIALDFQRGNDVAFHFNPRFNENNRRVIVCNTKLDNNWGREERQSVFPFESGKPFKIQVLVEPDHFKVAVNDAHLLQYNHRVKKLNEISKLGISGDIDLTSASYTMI
Sequence of Galectin-3 (P17931 whole entry): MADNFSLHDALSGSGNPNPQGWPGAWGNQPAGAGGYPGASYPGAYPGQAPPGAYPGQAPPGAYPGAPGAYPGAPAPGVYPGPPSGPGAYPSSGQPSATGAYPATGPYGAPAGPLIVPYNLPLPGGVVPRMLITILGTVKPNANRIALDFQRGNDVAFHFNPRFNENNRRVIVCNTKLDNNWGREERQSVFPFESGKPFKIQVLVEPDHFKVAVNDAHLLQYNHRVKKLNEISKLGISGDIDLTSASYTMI
Sequence of human Gal3-His (P17931 whole entry): as above

B1: 846.1F5: murine anti-Gal3 antibody (antibody, V domains shown)
VH: QIQLVQSGPELKKPGETVKISCKASGYTFTNYGMNWVKQAPGKGLKWMGWINTYTGEPSYADDFKGRFAFSLETSASTAYLQINNLKNEDMATYFCARWGGYDGDYYAMDYWGQGTSVTVSS
VL: NIMMTQSPSSLAVSAGEKVTMSCKSSQSVLYSSNQKNYLAWYQQKPGQSPKLLIYWASTRESGVPDRFTGSGSGTDFTLTISSVQPEDLAVYYCHQYLSSLTFGAGTKLELK
Usually Kd stands for the constant that tells how readily two partners part at equilibrium. Consider B1, for which, in the assay with hGal3 peptide, the “Epitope Mapping” value was determined as 6 and the Gal3 peptide bound result is on record as “peptide 6”. For the same molecule, the Bin with human Gal3-His worked out at 3. The “GAL3-TIM3 Blocking @ 3 ug/mL” value in assay [1] stood at 90%. In addition, the Kd with Galectin-3 worked out at 2.73 nM.

B2: 15F10.2D6: murine anti-Gal3 antibody (antibody, V domains shown)
VH: EVQLVESGGGLVKPGGSLKLSCAASGFAFSSYAMSWVRQTPEKRLEWVATISDGGVYTYYTDHVKGRFTISRDNAEDNLYLQMSHLKSEDTAMYYCVRDGGYWGQGTTLTVSS
VL: DVLMTQTPLSLPVSLGDQASISCRSSQSIVHNNGNTYLEWYLQKPGQSPKLLIYKVSNRFSGVPDRFSGSGSGTDFTLKISRVEAEDLGVYYCFQGSHVPLTFGGGTKLELK
For the molecule B2, in the assay on hGal3 peptide, the “Epitope Mapping” value is given as 2,7 and the Gal3 peptide bound entry is “peptide 7”. In the assay with human Gal3-His, this molecule registered a Bin of 8. Moreover, in assay [1], the “GAL3-TIM3 Blocking @ 3 ug/mL” value is 19%. The Kd in the assay with Galectin-3 is 2.06 nM.

B3: 12G5.D7: murine anti-Gal3 antibody (antibody, V domains shown)
VH: QVQLKQSGAELVRPGASVKLSCKASGYTFTDYYINWVKQRPGQGLEWIARIYPGTGNTDYNEKFKGRATLTAEKSSSTAYMQLSSLTSEDSAVYFCARFAYYYGSGGYFDYWGHGTTLTVSS
VL: DILMTQSPSSMSVSLGDTVSITCHASQGINSNMGWLQQKPGKSFKGLIYHATNLEDGVPSRFSGSGSGADYSLTISSLESEDFADYYCVQYAQFPPTFGSGTKLEIK
modifications: VH of 12G5.D7; VL of 12G5.D7
notes: murine anti-Gal3 antibody
Regarding B3, the “Epitope Mapping” value with hGal3 peptide is on record as “Non-linear”. The Bin with human Gal3-His was found to be 10. Moreover, in assay [1], the “GAL3-TIM3 Blocking @ 3 ug/mL” value stood at 12%. For the same molecule, in the assay with Galectin-3, the Kd was found to be 1.9 nM.

B4: 19B5.2E6: murine anti-Gal3 antibody (antibody, V domains shown)
VH: QIQLVQSGPELKKPGETVKISCKASGYTFTTYAMSWVKQAPGKGLKWMGWINTYSGVPTYADDLKGRFAFSLETSASTAYLQINNLKNEDTATYFCARGPYAMDYWGQGTSVTVSS
VL: DIQMTQTTSSLSASLGDRVTISCSASQGINNYLNWYQQKPDGTVKLLIYYASSLHSGVPSRFSGSGSGTDYSLTISNLEPEDIATYYCQQYSQVPYTFGSGTKLEIK
As to B4, in the assay with hGal3 peptide, the “Epitope Mapping” value is on record as 1,7 and the Gal3 peptide bound entry is on record as “peptide 1; also recorded: peptide 7”. The molecule further returned a Bin in the assay with human Gal3-His of 4. Also, in assay [1], the “GAL3-TIM3 Blocking @ 3 ug/mL” value worked out at 61%. The Kd with Galectin-3 was less than 1 nM.

B5: 23H9.2E4: murine anti-Gal3 antibody (antibody, V domains shown)
VH: QIQLVQSGPELKKPGETVKISCKASGYTFTTYAMSWVKQAPGKGLKWMGWINTYSGVPTYADDLKGRFAFSLETSASTAYLQINNLKNEDTATYFCARGPYAMDYWGQGTSVTVSS
VL: DIQMTQTTSSLSASLGDRVTISCSASQGINNYLNWYQQKPDGTVKLLIYYASSLHSGVPSRFSGSGSGTDYSLTISNLEPEDIATYYCQQYSQVPYTFGSGTKLEIK
Turning to B5, in the assay with hGal3 peptide, the “Epitope Mapping” value was 1,7 and the Gal3 peptide bound result was “peptide 1; also recorded: peptide 7”. This molecule had a Bin with human Gal3-His of 4. Also, the “GAL3-TIM3 Blocking @ 3 ug/mL” value in assay [1] amounted to 80%. Further, in the assay with Galectin-3, the Kd is 4.26 nM.

B6: 24D12.2H9: murine anti-Gal3 antibody (antibody, V domains shown)
VH: QVQLKQSGPGLVQPSQSLSITCTVSGFSLTSYGVHWVRQAPGKGLEWLGVIWSGGSTDYNAAFMSRLSISKDNSKSQVFFKMNSLQADDTAIYYCAKSPDGYDVAWFGYWGQGTLVTVSA
VL: DIVMTQSHKFMSTSVGDRVSITCKASQDVRTAVAWYQQKPGQSPKLLIYWASTRHTGVPDRFTGSGSGTDFTLTLSNVQSEDLADYFCQQYSSYPWTFGGGTKLEIK
modifications: VH of 24D12.2H9; VL of 24D12.2H9
notes: murine anti-Gal3 antibody
Regarding B6, the “Epitope Mapping” value in the assay on hGal3 peptide is given as “Non-linear”. The molecule also came in with a Bin with human Gal3-His of 11. In addition, the “GAL3-TIM3 Blocking @ 3 ug/mL” value in assay [1] is recorded as 0%. The Kd in the assay with Galectin-3 was determined as 4.13 nM.

B7: 4A11.2B5: murine anti-Gal3 antibody, origin of IMT006-1 and IMT006-5 (antibody, V domains shown)
VH: QVQLQQSGPELVKPGASVKISCKASGYSFTNYYIHWVKQRPGQGLEWIGWIYPGSGNTNYNEKFKGKATLTADTSSSTTNMQLSSLTSEDSAVYYCSTAPGGFDVWGSGTTVTVSS
VL: DIVMTQAAFSNPVTLGTSASISCRSSKSLLHSDGITYLYWYLQRPGQSPQLLIYRMSNLASGVPDRFSGSGSGTDFTLRISRVEAEDVGVYYCAQMLEFPLTFGAGTKLELK
Consider B7, for which, in the assay with hGal3 peptide, the “Epitope Mapping” value was found to be 6 and the Gal3 peptide bound result is “peptide 6”. Also, in the assay with human Gal3-His, the Bin is recorded as 3. In addition, the “GAL3-TIM3 Blocking @ 3 ug/mL” value in assay [1] came to 48%. In the assay with Galectin-3, the Kd worked out at 5.22 nM.

B8: 20D11.2C6: murine anti-Gal3 antibody (antibody, V domains shown)
VH: EVQLQQSGPELVKPGASVKISCKASGYTFTDFYINWVKQSHGKSLEWIGDINPKNGGINYNPKFKIKATLTVDKSSSTSYMDLRGLTSEDSAVYYCTSGYGFPYWGQGTLVTVSA
VL: DIQMNQSPSSLSASLGDTITITCRASQNIYIWLSWYQQKPGNIPKLLIYKASNLHTGVPSRFSGSGSGTDFTLTISTLQPEDIATYFCLQGQSYPLTFGAGTKLEMK
On to B8, for which, in the assay on hGal3 peptide, the Gal3 peptide bound result is listed as “peptide 1; also recorded: peptide 7”. Also, the Bin in the assay with human Gal3-His is recorded as 5. Further, the “GAL3-TIM3 Blocking @ 3 ug/mL” value in assay [1] turned out to be 40%. In addition, the Kd with Galectin-3 was determined as 27.8 nM.
